In PMC5923263 one finds stoichiometry N data, which are given here for four substances.

Experiment [1] addresses His-tagged Sll1961 (wild type) (Synechocystis sp. PCC 6803). Briefly: SEC; His-Sll1961 reduced with 100 mM DTT for 15 min at room temperature, 60 μM; Superdex 75 increase 3.2/300 or Superdex 200 increase 3.2/300; 20 mM sodium phosphate (pH 7.4), 150 mM NaCl, 3 mM DTT; standards of 150, 66 and 44 kDa. (SEC sorts molecules by how far they enter the pores of the column.)
Experiment [2] shares this target. Briefly: SEC-MALS; size exclusion chromatography with static light scattering (Viscotek TDA 305), Superdex 75 increase 3.2/300; BSA as standard.
Experiment [3] concerns the target His-tagged Sll1961 C124A (Synechocystis sp. PCC 6803). The experiment can be described thus: SEC; His-Sll1961 reduced with 100 mM DTT for 15 min at room temperature, 60 μM; Superdex 75 increase 3.2/300 or Superdex 200 increase 3.2/300; 20 mM sodium phosphate (pH 7.4), 150 mM NaCl, 3 mM DTT; standards of 150, 66 and 44 kDa.
Experiment [4] has the same target. Briefly: SEC-MALS; size exclusion chromatography with static light scattering (Viscotek TDA 305), Superdex 75 increase 3.2/300; BSA as standard.
For experiment [5], the target named is His-tagged Sll1961 C229A (Synechocystis sp. PCC 6803). Briefly: SEC; His-Sll1961 reduced with 100 mM DTT for 15 min at room temperature, 60 μM; Superdex 75 increase 3.2/300 or Superdex 200 increase 3.2/300; 20 mM sodium phosphate (pH 7.4), 150 mM NaCl, 3 mM DTT; standards of 150, 66 and 44 kDa.
Experiment [6] has the same target. Briefly: SEC-MALS; size exclusion chromatography with static light scattering (Viscotek TDA 305), Superdex 75 increase 3.2/300; BSA as standard.
Experiment [7] has as its target His-tagged Sll1961 C307A (Synechocystis sp. PCC 6803). The experiment can be described thus: SEC; His-Sll1961 reduced with 100 mM DTT for 15 min at room temperature, 60 μM; Superdex 75 increase 3.2/300 or Superdex 200 increase 3.2/300; 20 mM sodium phosphate (pH 7.4), 150 mM NaCl, 3 mM DTT; standards of 150, 66 and 44 kDa.
The target is the same in experiment [8]. Briefly: SEC-MALS; size exclusion chromatography with static light scattering (Viscotek TDA 305), Superdex 75 increase 3.2/300; BSA as standard.

As usually defined, the stoichiometry N is the number of molecules, sites or subunits per partner or assembly.

Consider “His-tagged Sll1961 (wild type) (natural protein)”, for which the stoichiometry N in experiment [1] and in experiment [2] was 2 in each case.
As for “His-tagged Sll1961 C124A (natural protein)”, the stoichiometry N in experiment [3] and in experiment [4] was 2 throughout.
Consider “His-tagged Sll1961 C229A (natural protein)”, for which the stoichiometry N in experiment [5] and in experiment [6] was 2 in each case.
On to “His-tagged Sll1961 C307A (natural protein)”, for which the stoichiometry N in experiment [7] and in experiment [8] was 2 in each case.
